Target: PaNOMT9 (Phellodendron amurense)
Assay: crystal structure

Substance: PaNOMT9 (enzyme)
- stoichiometry N: 2
